Assay results reported in the nanobody polyreactivity screen of Harvey et al. (2022).

Assay: yeast display, Sf9 membrane polyspecificity reagent, FACS + sequencing; frameworks hold sequencing errors
Method in brief: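 Galactose-induced (36–48 hours) yeast carrying a synthetic nanobody display library were exposed to 10% biotinylated, detergent-solubilized Sf9 membrane reagent at 4 °C for 1 hour. FACS followed streptavidin microbead enrichment, using low and high (top ~1%) gates for expression (anti-HA) and reagent binding (streptavidin). Colony PCR, MiSeq 2 × 250 sequencing and CDR-length filtering followed. Labels for polyreactivity reflect the gate of origin.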

Row | Sequence | polyreactivity (PSR sort gate)
1 | QVHLVESGAGLVQAGGSLRLSCAASGSVFPVNAMGWYRQAPGKERELVAAISGSSGSTYYADSVKGRFTISRDNAKNTVYLQMNSLKPEDTAVYYCAKRGYGYGDGAYYYWGQGTQVTVSS | low polyreactivity
2 | QVHLVESGGALVQAGASLRLSCAASGFTYGLYSMGWYRQAPGKERELVAVISSSGGSTYYADSVKGRFTISRDNAKNTVYLQMNRLKPEDTAVYYCAAEWLDYKFDVSYDYWGQCTQVTVSS | low polyreactivity
3 | QVHLVESGGALVQAGGSLRLSCAASGLTFVTNSMGWYRQAPGKERELVAAISLGGGSTYYADSVKGRFTISLDNAKNTVYLQMNSLKPEDTAVYYCAAVPGWVRQAVGWVLSLLDYCGQGTQVTVSS | low polyreactivity
4 | QVHLVESGGALVQAGGSLRLSCAASGRTFGIYAMGWYRQAPGKERELVATISWRGGSTYYADSVKGRFPISRDNAKNTVYLQMNSLKPEDTAVYYCAAGYYPYWGQGTQVTVSS | low polyreactivity
5 | QVHLVESGGALVQAGGSLRLSCAASGSTFGGYAMGWYRPAPWKERELVAAITRSGGTTYYADSVKGRFTISRDNAKNTVYLQMNSLKPEDTAVYYCAAQGRRRPHQDAPYDYWGQGTQVTVSS | high polyreactivity
6 | QVHLVESGGCLVQAGCSLRLSCAASGRTFGWNVMGWYRQAPGTERELVAAISGSGGSTYYADSVKGRFTISRDNAKNTVYLQMNSLKPEDTAVYYCAALYGPGREYDYWGQGTQVTVSS | low polyreactivity
7 | QVHLVESGGCLVQAGGSLRLSCAASGFIFPWYAMGWYRQAPGKERELVAAISSSGGRTYYADSVKGRFTISRDNAKNTVYLQMNSLKPEDTGVYYCNVAYGLSQVYRYNYWGQGSQVTVSS | high polyreactivity
8 | QVHLVESGGCLVQAGGSLRLSSAASASIFYYNTMGWYIQAPGKERELVATNSSDGGTNYADSVKGRFTISRDNAKNTVYLQMNSLKPEDTAVYYCAAAVSPYSYWPGFDYWGQGTQVTVSS | low polyreactivity
9 | QVHLVESGGGEVQAGGSLRLSCAASGRTFYNYAMGWYRQAPGKERELVASIRKNGGSTYYAYSVKGRFSISRDNAKNTVYLQMNSLKPEDTAVYYFAARYWGISRIFPSKYDYWGQGTQVTVSS | high polyreactivity
10 | QVHLVESGGGFVQAGGSLRLSCAASGSIFVINGMGWYRQAPGKERELVAAISSRGGDTYYADSVKGRFTISRDNAKNTVYLQMNSLKPEDTAVYYCNARYYTSYDYWGQGTKVTVSS | low polyreactivity
11 | QVHLVESGGGIDQAGGSLRLSCAASGSTFTNNTMGWYRPAPGKERELVAGITKSGGSTYYADSVKGRFTISRDNAKKTVYLQMNSLKPEDTAVYYCATSTSRRYGSRHNYWGQGTQVTVSS | high polyreactivity
12 | QVHLVESGGGIVQAGGSLRLSCAASGRTFWNYAMRWYRQAPGKERELVAVIRFSDGSTYYADSVKGRFTISRDNAKNTVYVQMNSLKPEDTAVYYCAAKGQRRWGSGFDYWGQGTQVTVSS | low polyreactivity
13 | QVHLVESGGGIVQAGGSLRLSCAASGSIFNYYAMGWYRQAPGKETELVAAITWSGGRTYYADSVKGRFTISRDNAKNTVDLQMNSEKPEDTAVYYFATATVRFRVILFSPRMDDWGQGSQVTVSS | low polyreactivity
14 | QVHLVESGGGLDQAGGSLRLSCAASGSTFSGYAMGWYRQAPGKERELVAAISSTGRTYYADSVKGRFTISRDNAKNTVYLQMNSLIPEDTALYYCAAKRYTVYGHKYEYWGQGTQVTVSS | high polyreactivity
15 | QVHLVESGGGLDQAGGSLRLSSASSGRIIVRNAMGCYRQAPGKERELVADISSSGGRTYYADSVKGRFTISRDNAKNTVYLQMNSLKPEDTAVYYCAASSSNNEYDYWGQGTQETVSS | high polyreactivity
16 | QVHLVESGGGLVHAGGSLRLSCAASRSTFRNYAMGWYRQAHGKEREFVATINWIGGTTYYADSVKGRFTLSRDNAKNTVDLQMNSLKPVDTGVYYCAAQFDYYPWGGYWGQGTQVTVSS | high polyreactivity
17 | QVHLVESGGGLVKAGGSLRLSCAASGGTIFVYMGWYRQDPGKETELVADISGSGGGTYYADSVKGRFTISRDNAMNTVYLQMNSLKPEDTAVYYCAAYYGHTYNGYYYWGQGTQVTVSS | low polyreactivity
18 | QVHLVESGGGLVKAGGSLRLSCAASGNTFLWYAMGWYRQAPGKERELVAAITYSGGSTYYADSVKGRFTISRDNAKNTVYLQMNSLKPEYTPVYYCAAVGSYLAGYQFDYWGQGTQVNVSS | low polyreactivity
19 | QVHLVESGGGLVKAGGSLRLSCAASGRTFAQYVMGWYRQAPGKERELVAAITWSGGSSYYADSVKGRFTISRDNAKNTVYLQMNSLKPEDTALYYCAVKGAGGPKDDYWGQGTQVTVSS | high polyreactivity
20 | QVHLVESGGGLVQAGCSLRLICAASGRIFTLYAMGWYRQAPGTEMEFVAAINRGGSTNYADSVKGRFTISRDNAKNTVYLQMNSLKPEVTAVYYCAAITTSRFRTYSYDYWGQGTKVTVSS | high polyreactivity
21 | QVHLVESGGGLVQAGCSLRVSCAASGRIFLYTGKGWSRQAAGKERELVAAISSGGSTYYADSVKGRFTISRDNAKNTVYLQMNSLKPEDTAVYYCAKEGHVVIFYIGQYELDFWGQGTQVTVSS | low polyreactivity
22 | QVHLVESGGGLVQAGGCLRLICAASGSIFVPYAMGWYRQAPVKERELVAAISRGGDTNYADSVKGRFTISRDNAKNTVYLQMKSLKPEDTAVYYCAKSGYGNRGFDYWGQGTQVSVSS | low polyreactivity

Row | Sequence | polyreactivity (PSR sort gate)
23 | QVHLVESGGGLVQAGGILRLSCAAYGSTFKSYAMGWYRLAPGKERELVAAISSSTGRTYYADSVKGRFTISLDYAKNTVYLQMNSMKPEDTAVYYCNAVHRYERDYCGQGTQVTVSS | high polyreactivity
24 | QVHLVESGGGLVQAGGRLRLSCAASGSIFFRYAMGWYRQAPGKERELVAAINSRGGRTYYADSVKGRFTISRDNAKNTVYLQMNSLKPEDTAVYYCAAKGYWAKGGKTYGGYDYWGQGTQVTGSS | high polyreactivity
25 | QVHLVESGGGLVQAGGSHRLSCAASGSISFIYAMGWYIQAPGKERELVAAITSSGGSTYYADSVKGRFTISRDNAQNTVYLQMNSLKPDDTAVYYCAAERWTSRHYSGNDYWGQGTQVTVSS | low polyreactivity
26 | QVHLVESGGGLVQAGGSHSLSCAASGITFPLYVMGSYRQAPGKERELVAAISASGGSTYADSVKGRFTISRDNAKNTVYLQMNSLKPEDTAVYYCNAAVYVGYEYDYWGLGTQVTVSS | low polyreactivity
27 | QVHLVESGGGLVQAGGSLGLSCAASGFTFTRNTMGWYRQAPGKERELVAAITRGGSTNYADSVKGRFTISRDNAKNTVYLQMNSLKPEDTAVYYCNKGRNVVLVRTADDYWGQGTQVTVSS | low polyreactivity
28 | QVHLVESGGGLVQAGGSLLLSCAASGFTFRTNAMGWNRQAPGKERELVAVISRRGGSTYYADSVKGRFTISRDNAKNTVYIQMNSLKPEDTAVYYCNAGDGTVGRTYYRSYDYWGQGTQVTVSS | high polyreactivity
29 | QVHLVESGGGLVQAGGSLPLSCAASGRTFIYNTMGWYRPAPGKERELVAAITRNGGSTNYADSVKGRFTISRDNAKNTVYLQMNSLKPEDTAVYYCAAKYIRFARSRDYWGQGTQVTVSS | high polyreactivity
30 | QVHLVESGGGLVQAGGSLRLICAASGRILTFNAMGWYRQAPGKERELVAGINWSGDSTYYADSVKGRFTISRDNAKNTVYLQINSLKPEDTAFYYCTKYSYKAHFNYWGQGTQVTVSS | low polyreactivity
31 | QVHLVESGGGLVQAGGSLRLICAATGFIFGSYAMGWYRQAPGKERELVAAINWSGGNTYYADSVKGRFTISRDNEKNTVYLQMNSLKPEDTAVYYCAAQYVTSRFDYWGQGTQVTVSS | high polyreactivity
32 | QVHLVESGGGLVQAGGSLRLSCAAAGSTVVYNVMGWYRQAPGKERELVAAIRWRGGSTYADSVKGRFTISRDNAKKTVYLQMNSLKPEDTAVYYCAAGIPRYWYAGHYDYWGQGTQVTVSS | low polyreactivity
33 | QVHLVESGGGLVQAGGSLRLSCAASGFIFFYYAMGWYRQAPGTERELVAAISRSGGSTYYADSVKGRFTISRDNAKNTVYFQMNSLKPEDTAVYYCAAVWPVIYGMDYWGQGTQVTVSS | high polyreactivity
34 | QVHLVESGGGLVQAGGSLRLSCAASGFIFGYNARGWYRQAPAKERELVAAINWSGGRTYYADSVKGRFTISRDIAKNTVYLQMNSLKPEVTAVSYCNADGSRRYNYWGQGSQVTVSS | low polyreactivity
35 | QVHLVESGGGLVQAGGSLRLSCAASGFIFNYYAMGWYRQAPGKERELVAAISWRGTSTYYADSVKGRFTISRDNAKNTVYLQMNSLKPEDNAVYYCAAAKYPYVRRAWNFVGYDYWGQGTQVTVSS | high polyreactivity
36 | QVHLVESGGGLVQAGGSLRLSCAASGFIFYSNSMGWYRPAPGKERELVAAISSGGGSTRYADSVKGRFTISRDNAKNTVYLQMNSLKPEDTAVYYCASRDGYTIFRSTRYYYWGEGTQVTVSS | high polyreactivity
37 | QVHLVESGGGLVQAGGSLRLSCAASGFIFYYYAMGWYRQAPGKERELFARISRRGGSTYYADSVKGRFTISRDNAKNTVYLQMNSLKPEDTAVYYCAAVYLVYYGVSDMDYWGQGTKVTVSS | high polyreactivity
38 | QVHLVESGGGLVQAGGSLRLSCAASGFNLLPYALGWYRQAQGKERELVATINSGDSTYADSVKGRFTISRDNAKNTVYLQMNSLKPEDTAVYYCNAYWLVVPVDLDYWGQGTQVTVSS | low polyreactivity
39 | QVHLVESGGGLVQAGGSLRLSCAASGFTFGINAMGWYRQAPGKERELVAAINQSGDRTYYADSVKGRFTISRDNAKNPVYLELNSLKPDDTAVYYCAADTSYWYDYYIDYVGYYYWGQGTQVTVSS | high polyreactivity
40 | QVHLVESGGGLVQAGGSLRLSCAASGFTFIRYAMGWYRQAPGKETELVAAISVSGGRTYYADSVKGRFTISRDNAKNTVYLQMNSLKPEDTAVYYCARRPSYYQGDYWGQGTQVTVSS | high polyreactivity
41 | QVHLVESGGGLVQAGGSLRLSCAASGFTFNWYAMGWYRHAPGKERELVAAINSSGGNTYYADSVKGRFTISRDNAKNTVYLQMNSLKPEDTAVYYCAALLWGYVAFDYWGQGTQVTVSS | high polyreactivity
42 | QVHLVESGGGLVQAGGSLRLSCAASGFTFPEYYMGWYRQAPGKESELVAAINYSDGRTFYADSVKGRFTISRDNAKNSVYLQMNSLKPEDTAVYYCASDLSYDVWFFGPDYDYSGQGTQVTVSS | low polyreactivity
43 | QVHLVESGGGLVQAGGSLRLSCAASGFTFRDYAMGWYRQAPGKERELVAAIDIGTTTYYADSVKGRFTISRDNAKNTVYLQMNSLKPEDTAVYYCAAYSFASVYFGTGYDYWGQGTQVTVSS | low polyreactivity
